This passage reports percentage of indels results from article PMC4513872.

This experiment deals with C-Intein_C-Cas9_v1 (Nostoc punctiforme | Streptococcus pyogenes) (UniProt Q99ZW2).

On to “N-Cas9_N-Intein_v1 (from UniProt Q99ZW2 1-573)”, for which the percentage of indels at the endogenous Fus locus in Neuro-2a cells (T7 endonuclease I assay) after transfection of both moieties; wild-type SpCas9 gave 23.1% stood at 22.7%.
